In the supplement of paper PMC10567573:

B1: TRIM43 (parent)
chain: RAQMIRNEYRKLHPVLHKEEKQHL
B2: TRIM39 (parent)
chain: CKACITRWWEDLERDFPCPVCRKT

Variants of: B1
Experiment: protein stability index of a GFP-peptide fusion (GPS, HEK-293T) (PSI 1-6); higher = more stable
Conditions: c terminus: a fixed tail appended
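Further: lentivirally expressed fusions sorted by FACS into six bins by GFP to DsRed ratio, PSI derived from sequencing read proportions per bin multiplied by bin number.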

Variant	protein stability index
P14S	2.04
P14T	2.77
P14V	2.59
P14W	2.51
P14Y	2.27
V15A	3.39
V15C	3
V15D	3.64
V15E	3.5
V15G	3.88
V15H	2.98
V15I	3.09
V15K	3.29
V15L	2.63
V15M	3.67
V15N	3.65
V15P	3.32
V15Q	3.17
V15R	3.37
V15S	2.94
V15T	3.13
V15W	2.5
V15Y	2.7
L16A	3.52
L16C	2.71

Variant	protein stability index
L16D	4.12
L16E	4.04
L16F	3.04
L16G	3.1
L16H	3.2
L16I	3.31
L16K	3.85
L16M	3.94
L16N	3.95
L16P	3.92
L16Q	3.85
L16R	3.84
L16S	3.65
L16T	3.57
L16V	4.07
L16W	2.3
L16Y	2.52
H17A	2.37
H17C	2.58
H17D	3.5
H17E	4.14
H17F	2.53
H17G	3.56
H17I	2.8
H17K	4.15

Variant	protein stability index
H17L	2.93
H17M	2.81
H17N	3.28
H17P	3.42
H17Q	3.07
H17R	3.79
H17S	2.67
H17T	3.2
H17V	3.74
H17W	2.8
H17Y	2.96
K18A	2.81
K18C	2.7
K18D	3.45
K18E	4.06
K18F	2.4
K18G	3.37
K18H	3.59
K18I	2.6
K18L	2.95
K18M	2.6
K18N	3.2
K18P	3.48
K18Q	3.49
K18R	2.55

Variant	protein stability index
K18S	3.54
K18T	3.06
K18V	3.26
K18W	2.44
K18Y	3.09
E19A	2.17
E19C	2.71
E19D	3.02
E19F	1.98
E19G	2.96
E19H	2.34
E19I	1.73
E19K	3.41
E19L	2.07
E19M	2.23
E19N	2.42
E19P	4.02
E19Q	3.22
E19R	2.93
E19S	2.92
E19T	2.82
E19V	2.25
E19W	2.18
E19Y	1.97
E20A	2.32

Variant	protein stability index
E20C	2.57
E20D	3.38
E20F	1.91
E20G	2.29
E20H	2.63
E20I	2.42
E20K	2.95
E20L	1.83
E20M	2.29
E20N	2.32
E20P	2.09
E20Q	2.76
E20R	1.83
E20S	2.85
E20T	2.83
E20V	1.97
E20W	1.66
E20Y	1.83
K21A	2.91
K21C	3.18
K21D	3.82
K21E	4.63
K21F	2.58
K21G	2.42
K21H	3.15

Variant	protein stability index
K21I	2.59
K21L	2.4
K21M	2.54
K21N	2.77
K21P	2.97
K21Q	4.17
K21R	3.46
K21S	2.81
K21T	2.92
K21V	3.37
K21W	2.51
K21Y	2.71
Q22A	2.89
Q22C	2.54
Q22D	3.65
Q22E	3.82
Q22F	1.86
Q22G	2.34
Q22H	2.91
Q22I	2.54
Q22K	2.99
Q22L	2.33
Q22M	2.3
Q22N	3.07
Q22P	3.47

Variant	protein stability index
Q22R	3.62
Q22S	3.3
Q22T	2.58
Q22V	2.64
Q22W	2
Q22Y	2.71
H23A	3.08
H23C	3.51
H23D	4.45
H23E	3.81
H23F	2.58
H23G	3.63
H23I	2.46
H23K	3.33
H23L	3.18
H23M	3.39
H23N	3.13
H23P	3.09
H23Q	3.35
H23R	2.94
H23S	3.45
H23T	3.23
H23V	3.17
H23W	2.61
H23Y	2.74

Variant	protein stability index
L24A	3.59
L24C	3.65
L24D	4.51
L24E	4.61
L24F	2.36
L24G	3.67
L24H	3.61
L24I	3.19
L24K	3.77
L24M	3.45
L24N	4.01
L24P	3.5
L24Q	3.84
L24R	3.06
L24S	3.82
L24T	4.01
L24V	3.67
L24W	2.88
L24Y	3.34

Variants of: B2
Experiment: as above
Conditions: c terminus: a fixed tail appended

Variant	protein stability index
C1A	1.94
C1D	2.45
C1E	2.07
C1F	1.42
C1G	1.74
C1H	2.16
C1I	1.27
C1K	1.76
C1L	2.31
C1M	2.26
C1N	1.67
C1P	2.42
C1Q	2.3
C1R	2.43
C1S	1.68
C1T	2.06
C1V	2.27
C1W	2.56
C1Y	1.72
K2A	4.08
K2C	3.64
K2D	4.5
K2E	4.48
K2F	3.34

Variant	protein stability index
K2G	3.59
K2H	4.08
K2I	3.25
K2L	3.58
K2M	3.69
K2N	4.4
K2P	4.11
K2Q	4.08
K2R	4.02
K2S	4.59
K2T	4.05
K2V	3.53
K2W	3.23
K2Y	4.23
A3C	3.57
A3D	4.04
A3E	4.12
A3F	3.17
A3G	4.09
A3H	3.67
A3I	3.9
A3K	3.06
A3L	3.8
A3M	3.35

Variant	protein stability index
A3N	4.16
A3P	2.48
A3Q	4.06
A3R	3.53
A3S	4.21
A3T	4.85
A3V	4.17
A3W	2.87
A3Y	3.9
C4A	1.72
C4D	1.75
C4E	1.88
C4F	2.45
C4G	1.65
C4H	3.14
C4I	1.59
C4K	2.05
C4L	1.63
C4M	1.9
C4N	2.35
C4P	2.1
C4Q	2.41
C4R	2.18
C4S	2.07

Variant	protein stability index
C4T	2.24
C4V	2.19
C4W	1.75
C4Y	1.61
I5A	4.25
I5C	4.63
I5D	4.36
I5E	4.6
I5F	4.22
I5G	3.86
I5H	4.49
I5K	3.88
I5L	4.25
I5M	4.22
I5N	4.12
I5P	3.86
I5Q	4.31
I5R	3.93
I5S	4.22
I5T	3.99
I5V	3.35
I5W	3.99
I5Y	4.39
T6A	3.64

Variant	protein stability index
T6C	2.57
T6D	4.27
T6E	4.03
T6F	2.95
T6G	4.36
T6H	3.28
T6I	3.01
T6K	3.57
T6L	3.58
T6M	3.27
T6N	4.38
T6P	3.5
T6Q	3.77
T6R	3.42
T6S	3.62
T6V	2.71
T6W	3.36
T6Y	3.33
R7A	4.08
R7C	3.8
R7D	4
R7E	3.73
R7F	3.79
R7G	4.08

Variant	protein stability index
R7H	5.06
R7I	2.96
R7K	3.73
R7L	3.58
R7M	3.72
R7N	3.89
R7P	3.93
R7Q	3.93
R7S	3.98
R7T	4.07
R7V	3.28
R7W	3.97
R7Y	4.85
W8A	4.07
W8C	4.15
W8D	4.42
W8E	4.73
W8F	4.17
W8G	4.8
W8H	4.66
